Results on eight sequences are retold here after the Immune Epitope Database (IEDB).

Bounds are passed on as bounds.

For one test, the target named is HLA-A*26:03. Put plainly: IEDB peptide-MHC binding, purified MHC/competitive/fluorescence; filed as Kd, often an IC50 or EC50 that approximates it; ≥ and ≤ were set here for values at or beyond the usual limits of such assays.
A further test addresses HLA-A*02:03. The test is described as above.
Test [1] deals with HLA-B*15:01. Described as above.
Another test concerns the target HLA-A*30:01. The description is as above. The note with it: source organism: Giardia lamblia ATCC 50803.
The next test has as its target HLA-A*68:02. The description is as above.
Test [2] addresses HLA-A*26:02. The test is described as above.
Test [3] addresses HLA-A*02:01. Described as above.
For test [4], the target named is HLA-B*39:01. The test is described as above.
The target in the next test is HLA-B*57:01. Put plainly: IEDB peptide-MHC binding, purified MHC/direct/fluorescence; filed as Kd, often an IC50 or EC50 that approximates it; ≥ and ≤ were set here for values at or beyond the usual limits of such assays.
In another test the target is HLA-A*31:01. The description is as above.
In another test the target is HLA-B*58:01. The description is as above.
In another test the target is HLA-A*26:01. The description is as above.
In test [5] the target is HLA-B*15:17. Described as above.
Test [6] concerns the target HLA-A*01:01. Described as above.
Another test addresses HLA-B*18:01. Described as above.
The next test concerns the target HLA-B*07:02. The description is as above.
Test [7] deals with HLA-A*11:01. Described as above.
A further test addresses HLA-B*15:09. Put plainly: IEDB peptide-MHC binding, purified MHC/competitive/fluorescence; filed as Kd, often an IC50 or EC50 that approximates it; ≥ and ≤ were set here for values at or beyond the usual limits of such assays.
A further test concerns the target HLA-A*69:01. Kind of test: IEDB peptide-MHC binding, purified MHC/direct/fluorescence; filed as Kd, often an IC50 or EC50 that approximates it; ≥ and ≤ were set here for values at or beyond the usual limits of such assays.
Test [8] addresses HLA-A*26:02. The description is as above.
For test [9], the target named is HLA-B*08:01. Described as above.
For test [10], the target named is HLA-A*02:01. Described as above.
The next test has as its target HLA-B*27:05. The description is as above.
The target of a further test is HLA-B*48:01. The description is as above.
Another test deals with HLA-B*40:01. The description is as above.
The target of the next test is HLA-A*02:06. Kind of test: IEDB peptide-MHC binding, purified MHC/competitive/fluorescence; filed as Kd, often an IC50 or EC50 that approximates it; ≥ and ≤ were set here for values at or beyond the usual limits of such assays. The note with it: source organism: Yersinia pestis Nepal516.
Test [11] concerns the target HLA-A*01:01. Described as above. To be noted: source organism: Yersinia pestis Nepal516.
Test [12] concerns the target HLA-B*15:01. Kind of test: IEDB peptide-MHC binding, purified MHC/direct/fluorescence; filed as Kd, often an IC50 or EC50 that approximates it; ≥ and ≤ were set here for values at or beyond the usual limits of such assays. The note with it: source organism: Yersinia pestis.
A further test deals with HLA-B*46:01. Described as above.
Another test has as its target HLA-B*08:03. The test is described as above. To be noted: source organism: Yersinia enterocolitica subsp. enterocolitica 8081.
The target of a further test is HLA-B*08:02. The test is described as above. The note with it: source organism: Yersinia enterocolitica subsp. enterocolitica 8081.
The target in the next test is HLA-A*03:01. The description is as above.
The target in test [13] is HLA-B*39:01. The test is described as above. The note with it: source organism: Yersinia enterocolitica subsp. enterocolitica 8081.
Test [14] concerns the target HLA-B*08:01. Put plainly: IEDB peptide-MHC binding, purified MHC/competitive/fluorescence; filed as Kd, often an IC50 or EC50 that approximates it; ≥ and ≤ were set here for values at or beyond the usual limits of such assays. To be noted: source organism: Shigella boydii Sb227.
The target of test [15] is HLA-B*15:17. The description is as above. To be noted: source organism: Vaccinia virus.
Test [16] deals with HLA-A*11:01. Described as above. To be noted: source organism: Vaccinia virus.
The target of the next test is HLA-B*51:01. Kind of test: IEDB peptide-MHC binding, purified MHC/direct/fluorescence; filed as Kd, often an IC50 or EC50 that approximates it; ≥ and ≤ were set here for values at or beyond the usual limits of such assays. The note with it: source organism: Camelpox virus M-96.
The mark [17] stands for this setting: source organism: Giardia lamblia ATCC 50803.
Where [18] appears, read: source organism: Francisella tularensis subsp. tularensis FSC198.
Setting [19] is: source organism: Francisella tularensis subsp. holarctica LVS.
The mark [20] stands for this setting: source organism: Francisella tularensis subsp. tularensis FSC033.
Setting [21] is: source organism: Yersinia pestis Nepal516.
[22] abbreviates: source organism: Yersinia pestis.
[23] abbreviates: source organism: Vaccinia virus.
The mark [24] stands for this setting: source organism: Camelpox virus M-96.
Where [25] appears, read: source organism: Escherichia coli O157:H7 str. EDL933.

As usually defined, the Kd is the concentration at which binding is half-saturated. A higher Kd goes with weaker binding.

Consider FMKVKFEAL, for which the Kd with HLA-A*26:03 (setting [17]) was ≥ 20 µM; with HLA-A*02:03 (setting [17]), 0.0298 µM; with HLA-B*15:01 [1] (setting [17]), 0.168 µM; with HLA-A*30:01 it was 4.26 µM; in the test with HLA-A*68:02 (setting [17]) it was 4.62 µM; in the test with HLA-A*26:02 [2] (setting [17]), ≥ 20 µM. The equilibrium dissociation constant (Kd) with HLA-A*02:01 [3] (setting [17]) was 0.217 µM; in the test with HLA-B*39:01 [4] (setting [17]), ≥ 20 µM; with HLA-B*57:01 (setting [17]) it was ≥ 20 µM; in the test with HLA-A*31:01 (setting [17]), ≥ 20 µM; in the test with HLA-B*58:01 (setting [17]) it was ≥ 20 µM; in the test with HLA-A*26:01 (setting [17]), ≥ 20 µM. The dissociation constant Kd with HLA-B*15:17 [5] (setting [17]), in the test with HLA-A*01:01 [6] (setting [17]), with HLA-B*18:01 (setting [17]), in the test with HLA-B*07:02 (setting [17]) and with HLA-A*11:01 [7] (setting [17]) was ≥ 20 µM throughout.
REMGIVDLL: the Kd in the test with HLA-B*15:09 (setting [18]) is ≥ 20 µM; in the test with HLA-A*68:02 (setting [18]), ≥ 20 µM; with HLA-B*39:01 [4] (setting [18]), 4 µM; with HLA-B*57:01 (setting [19]), ≥ 20 µM; with HLA-A*31:01 (setting [19]), ≥ 20 µM; in the test with HLA-A*69:01 (setting [19]), ≥ 20 µM. The dissociation constant (Kd) in the test with HLA-B*58:01 (setting [19]) is ≥ 20 µM; with HLA-B*15:17 [5] (setting [19]), ≥ 20 µM; with HLA-A*01:01 [6] (setting [19]), ≥ 20 µM; with HLA-A*26:02 [8] (setting [20]), ≥ 20 µM; with HLA-B*08:01 [9] (setting [20]), ≥ 20 µM; in the test with HLA-B*18:01 (setting [19]), 0.514 µM. Further, the equilibrium dissociation constant (Kd) in the test with HLA-B*07:02 (setting [19]) is ≥ 20 µM; in the test with HLA-A*02:01 [10] (setting [19]), ≥ 20 µM; with HLA-B*27:05 (setting [19]), ≥ 20 µM; in the test with HLA-B*48:01 (setting [19]), 0.0932 µM; with HLA-B*40:01 (setting [19]), 0.0014 µM; with HLA-A*11:01 [7] (setting [19]), ≥ 20 µM.
For QWSPGPGRL, the Kd is ≥ 20 µM with HLA-A*26:03 (setting [21]); 4.85 µM with HLA-A*02:03 (setting [21]); 0.157 µM in the test with HLA-A*02:06; ≥ 20 µM with HLA-A*01:01 [11]; ≥ 20 µM in the test with HLA-A*26:02 [2] (setting [21]); ≥ 20 µM with HLA-B*57:01 (setting [22]). Besides, the Kd in the test with HLA-B*15:01 [12], with HLA-B*58:01 (setting [22]), with HLA-A*26:01 (source organism: Yersinia enterocolitica subsp. enterocolitica 8081), in the test with HLA-B*18:01 (setting [22]), in the test with HLA-B*46:01 (setting [22]) and with HLA-B*08:03 was ≥ 20 µM each time. In addition, the equilibrium dissociation constant (Kd) with HLA-B*08:02 is ≥ 20 µM; with HLA-A*03:01 (setting [22]) it was 0.719 µM; with HLA-B*07:02 (setting [22]), ≥ 20 µM; with HLA-A*02:01 [10] (setting [22]) it was ≥ 20 µM; with HLA-B*27:05 (setting [22]), ≥ 20 µM; with HLA-B*48:01 (setting [22]), ≥ 20 µM. In addition, the Kd in the test with HLA-B*40:01 (setting [22]) and with HLA-B*39:01 [13] was ≥ 20 µM in each case.
Take FLSHKIHVI: the equilibrium dissociation constant (Kd) in the test with HLA-B*08:01 [14] is 0.0861 µM; with HLA-A*02:01 [3] (source organism: Shigella boydii Sb227) it was 0.0016 µM.
For the sequence STPAILHIM, in the test with HLA-A*26:02 [8] (source organism: Listeria monocytogenes serotype 4b str. H7858), the dissociation constant (Kd) amounted to 0.003 µM.
With PTIPEQKCM, the Kd in the test with HLA-A*26:03 (source organism: Entamoeba histolytica HM-1:IMSS) was ≥ 20 µM.
As for RVATENIAV, the Kd is ≥ 20 µM with HLA-B*15:09 (setting [23]); 0.445 µM with HLA-B*15:01 [1] (setting [23]); ≥ 20 µM with HLA-B*15:17 [15]; 2.81 µM with HLA-B*39:01 [4] (setting [23]); ≥ 20 µM in the test with HLA-A*11:01 [16]; ≥ 20 µM in the test with HLA-B*57:01 (setting [24]). Further, the equilibrium dissociation constant (Kd) in the test with HLA-B*51:01 is ≥ 20 µM; with HLA-A*31:01 (setting [24]) it was ≥ 20 µM; in the test with HLA-A*69:01 (setting [24]), 0.156 µM; in the test with HLA-B*58:01 (setting [24]), ≥ 20 µM; with HLA-A*01:01 [6] (setting [24]) it was ≥ 20 µM; with HLA-B*08:01 [9] (source organism: Variola virus), ≥ 20 µM. The dissociation constant Kd with HLA-B*18:01 (setting [24]) was ≥ 20 µM; in the test with HLA-B*46:01 (setting [24]), ≥ 20 µM; with HLA-A*03:01 (source organism: Variola virus) it was ≥ 20 µM; with HLA-B*07:02 (setting [24]), 0.226 µM; in the test with HLA-A*02:01 [10] (setting [24]), 0.0227 µM; in the test with HLA-B*27:05 (setting [24]), ≥ 20 µM. The Kd with HLA-B*48:01 (setting [24]) and in the test with HLA-B*40:01 (setting [24]) was ≥ 20 µM in each case.
Take FTHREQLFM: the figures for the dissociation constant Kd in the test with HLA-A*26:01 (setting [25]) and in the test with HLA-A*26:02 [8] (setting [25]) were 0.059 µM and 0.028 µM, respectively.
